Laboratory results taken from article PMC11117473 (2024).
Ends that are not written are not given here.

How the values were obtained:
Experiment in all cases: fluorescence polarization
NCOA1 NR2 peptide [1] = target: T1, NCOA1 NR2 peptide (Homo sapiens)
T1 chain: Fluorescein-LTARHKILHRLLQEGSPSD

NCOA1 NR2 peptide [2] = target: T2, NCOA1 NR2 peptide (Homo sapiens)
T2 chain: Fluorescein-LTARHKILHRLLQEGSPSD

NCOA1 NR2 peptide [3] = target: T3, NCOA1 NR2 peptide (Homo sapiens)
T3 chain: Fluorescein-LTARHKILHRLLQEGSPSD

Kd (NCOA1 NR2 peptide [1]): 540 nM
Kd (NCOA1 NR2 peptide [2]): 500 nM
Kd (NCOA1 NR2 peptide [3]): 480 nM
B1: VDR LBD 156-453 (protein)
chain: LSDEQMQIINSLVEAHHKTYDDSYSDFVRFRPPVREGPVTRSASRAASLHSLSDASSDSFNHSPESVDTKLNFSNLLMMYQDSGSPDSSEEDQQSRLSMLPHLADLVSYSIQKVIGFAKMIPGFRDLTAEDQIALLKSSAIEIIMLRSNQSFSLEDMSWSCGGPDFKYCINDVTKAGHTLELLEPLVKFQVGLKKLKLHEEEHVLLMAICLLSPDRPGVQDHVRIEALQDRLCDVLQAYIRIQHPGGRLLYAKMIQKLADLRSLNEEHSKQYRSLSFQPEHSMQLTPLVLEVFGSEVS
